# In paper PMC6325244, “Regulation of the Peptidoglycan Polymerase Activity of PBP1b by Antagonist Actions of the Core Divisome Proteins FtsBLQ and FtsN” (mBio, 2019):
# T1: PBP1b (E. coli, UniProt P02919 1-844, fluorescent ampicillin label added after elution)
# T1 construct: PBP1b, E. coli, class A PBP, bifunctional glycosyltransferase/transpeptidase; Untagged as prey of HisFtsBLQ, HisFtsBL, HisFtsQ and HisFtsW; also called untagged PBP1b; source: E. coli C43 (DE3) or Lemo21 (DE3), coexpressed from Duet vectors, in detergent extract of membranes
# T1 sequence (looked up): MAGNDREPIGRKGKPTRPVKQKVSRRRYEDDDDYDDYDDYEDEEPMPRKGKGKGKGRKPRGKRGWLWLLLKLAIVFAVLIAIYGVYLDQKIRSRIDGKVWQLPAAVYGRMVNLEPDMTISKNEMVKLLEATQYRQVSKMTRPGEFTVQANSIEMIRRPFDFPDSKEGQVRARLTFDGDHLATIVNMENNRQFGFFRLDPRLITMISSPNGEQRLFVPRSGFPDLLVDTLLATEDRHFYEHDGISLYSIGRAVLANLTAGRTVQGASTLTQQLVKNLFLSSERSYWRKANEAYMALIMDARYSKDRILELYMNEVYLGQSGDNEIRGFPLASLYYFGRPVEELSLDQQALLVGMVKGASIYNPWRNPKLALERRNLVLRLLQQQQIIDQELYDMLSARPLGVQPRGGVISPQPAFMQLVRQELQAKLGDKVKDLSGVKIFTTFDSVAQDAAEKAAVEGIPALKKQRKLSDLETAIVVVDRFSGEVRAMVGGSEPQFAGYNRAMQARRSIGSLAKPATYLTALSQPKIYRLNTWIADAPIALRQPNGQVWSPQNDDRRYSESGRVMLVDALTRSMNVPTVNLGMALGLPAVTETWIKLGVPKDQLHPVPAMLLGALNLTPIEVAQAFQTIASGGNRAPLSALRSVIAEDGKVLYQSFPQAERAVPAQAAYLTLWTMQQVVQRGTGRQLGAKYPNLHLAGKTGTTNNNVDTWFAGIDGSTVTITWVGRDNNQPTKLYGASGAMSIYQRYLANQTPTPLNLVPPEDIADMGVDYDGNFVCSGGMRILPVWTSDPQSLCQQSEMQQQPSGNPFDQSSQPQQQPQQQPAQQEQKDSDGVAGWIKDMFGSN
# B1: FtsN (natural protein, E. coli, UniProt P29131 1-319, looked up)
# chain: MAQRDYVRRSQPAPSRRKKSTSRKKQRNLPAVSPAMVAIAAAVLVTFIGGLYFITHHKKEESETLQSQKVTGNGLPPKPEERWRYIKELESRQPGVRAPTEPSAGGEVKTPEQLTPEQRQLLEQMQADMRQQPTQLVEVPWNEQTPEQRQQTLQRQRQAQQLAEQQRLAQQSRTTEQSWQQQTRTSQAAPVQAQPRQSKPASSQQPYQDLLQTPAHTTAQSKPQQAAPVARAADAPKPTAEKKDERRWMVQCGSFRGAEQAETVRAQLAFEGFDSKITTNNGWNRVVIGPVKGKENADSTLNRLKMAGHTNCIRLAAGG
# notes: FtsN, E. coli, bitopic membrane protein; also called FtsN^WT; FtsNWT; source: E. coli C43 (DE3) or Lemo21 (DE3), coexpressed from Duet vectors, in detergent extract of membranes; also purified
# Legend:
# PBP1b [1] = target: T1, PBP1b
# PBP1b [2] = target: T1, PBP1b; experiment: pull-down + SEC; PBP1b copurified with FtsN or FtsN W83L on a nickel column followed by gel filtration; SDS-PAGE, Coomassie, band amounts by Image Quant TL
Molecule,"fold decrease in stimulation of the GTase activity of PBP1b (continuous fluorescence assay), initial velocity against wild-type FtsN (PBP1b [1]) [fold]",PBP1b/FtsN ratio in the copurified complex after gel filtration (parts PBP1b of 100 (PBP1b/FtsN 20/80)) (PBP1b [2]),PBP1b/FtsN ratio in the copurified complex after gel filtration (PBP1b [2]; partners not purified)
FtsN^W83L (from UniProt P29131 1-319) (natural protein),2,20,–
B1,–,–,~40 parts PBP1b of 100 (PBP1b/FtsN 40/60)
